Measurements as given in patent US7829082B2, “Catheter composition and uses thereof” (Genentech, Inc., priority 2001, dated 2010).

How the values were obtained:
[1] = 2 mg of alteplase or 10,000 U of urokinase, dwell 2 hours, up to two treatments; p=0.013; Haire et al.; cited from earlier work
[2] = Visual inspection of alteplase diluted in NS; type: physicochemical
Method: Alteplase (2 mg/vial rt-PA) was diluted to a concentration of 0.01, 0.025, 0.05, and 0.1 mg/mL final protein concentration in 0.9% NaCl (Normal Saline, NS)-containing IV bags (Baxter and/or Abbott, 250 mL). Specifically, rt-PA, protein bulk, was diluted to 1 mg/mL (50-mg vial formulation equivalent, 0.004% TWEEN 80™ surfactant) with filtered MILLI-Q™ water, or a 100-mg vial rt-PA was reconstituted to 1 mg/mL (0.008-0.011% TWEEN 80™ surfactant) with Sterile Water for Injection, USP (SWFI) using a 60-cc BD syringe and an 18 G needle directly inserted into the rubber septum of the vial at the center of the cake. The vial was gently mixed by slow inversions or rolling action until the cake was totally dissolved. IV diluent (0.9% NaCl, NS) was withdrawn and replaced with the same amount of the reconstituted or diluted 1 mg/mL rt-PA as follows:
After dilution into the IV bags (n=2 for each concentration), the bags were gently mixed by inversion (about 20-24 times). A 10-mL aliquot was withdrawn from the inlet port of the IV bag using a 10-cc BD syringe and 22 G needle. An aliquot (t=0) was dispensed directly into a 20-cc Type I clear glass vial for visual inspection. […]
Each aliquot was examined under a light box equipped with a black and white background. […] The color and clarity of the aliquots were recorded accordingly.

[3] = target: T1, in vitro clot consisting of plasminogen and fibrin (Homo sapiens, UniProt P00747+P02671+P02675+P02679); assay: Purified clot lysis activity for rt-PA; type: biochemical
T1 construct: Plasminogen kept frozen at or below −60° C. until use; purchased Biocell (fibrinogen); Calbiochem (thrombin)
T1 sequence (P00747 20-810 limits assumed): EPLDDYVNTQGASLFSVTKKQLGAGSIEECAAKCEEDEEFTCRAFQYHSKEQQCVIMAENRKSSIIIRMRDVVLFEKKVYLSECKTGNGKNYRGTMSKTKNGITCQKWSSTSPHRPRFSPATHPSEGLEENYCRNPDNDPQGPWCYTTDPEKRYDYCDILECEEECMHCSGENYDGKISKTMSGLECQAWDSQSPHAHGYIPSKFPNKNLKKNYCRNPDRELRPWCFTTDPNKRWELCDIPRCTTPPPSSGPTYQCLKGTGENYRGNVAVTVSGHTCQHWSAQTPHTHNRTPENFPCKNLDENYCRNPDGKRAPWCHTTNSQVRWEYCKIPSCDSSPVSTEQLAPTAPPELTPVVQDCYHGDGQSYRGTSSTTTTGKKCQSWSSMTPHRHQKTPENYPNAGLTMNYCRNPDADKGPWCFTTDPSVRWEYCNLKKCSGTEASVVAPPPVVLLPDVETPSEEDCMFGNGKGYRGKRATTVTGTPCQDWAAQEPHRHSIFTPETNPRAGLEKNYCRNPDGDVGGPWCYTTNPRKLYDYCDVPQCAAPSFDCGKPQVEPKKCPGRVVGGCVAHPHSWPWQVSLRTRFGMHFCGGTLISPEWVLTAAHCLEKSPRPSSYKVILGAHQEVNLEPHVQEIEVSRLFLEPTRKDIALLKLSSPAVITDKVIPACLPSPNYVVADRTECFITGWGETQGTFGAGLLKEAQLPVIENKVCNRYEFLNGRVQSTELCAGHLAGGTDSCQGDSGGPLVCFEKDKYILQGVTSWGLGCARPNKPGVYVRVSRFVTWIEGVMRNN
T1 sequence (P02671 36-629 limits assumed): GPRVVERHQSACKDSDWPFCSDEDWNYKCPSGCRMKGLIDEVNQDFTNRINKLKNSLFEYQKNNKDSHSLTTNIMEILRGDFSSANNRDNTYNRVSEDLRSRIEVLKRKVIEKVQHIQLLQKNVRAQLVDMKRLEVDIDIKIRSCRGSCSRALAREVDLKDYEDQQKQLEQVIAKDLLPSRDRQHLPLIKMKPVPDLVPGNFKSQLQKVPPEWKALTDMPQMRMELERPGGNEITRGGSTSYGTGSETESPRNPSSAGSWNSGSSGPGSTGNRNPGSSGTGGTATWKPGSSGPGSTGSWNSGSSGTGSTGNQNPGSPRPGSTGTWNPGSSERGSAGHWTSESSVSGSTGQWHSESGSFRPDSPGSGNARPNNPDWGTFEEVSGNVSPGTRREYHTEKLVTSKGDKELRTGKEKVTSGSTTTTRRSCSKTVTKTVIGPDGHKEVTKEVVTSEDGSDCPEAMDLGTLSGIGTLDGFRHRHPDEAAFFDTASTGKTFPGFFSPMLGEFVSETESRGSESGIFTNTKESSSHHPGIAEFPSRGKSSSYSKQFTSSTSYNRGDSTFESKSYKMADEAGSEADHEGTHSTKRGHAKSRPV
T1 sequence (P02675 45-491 limits assumed): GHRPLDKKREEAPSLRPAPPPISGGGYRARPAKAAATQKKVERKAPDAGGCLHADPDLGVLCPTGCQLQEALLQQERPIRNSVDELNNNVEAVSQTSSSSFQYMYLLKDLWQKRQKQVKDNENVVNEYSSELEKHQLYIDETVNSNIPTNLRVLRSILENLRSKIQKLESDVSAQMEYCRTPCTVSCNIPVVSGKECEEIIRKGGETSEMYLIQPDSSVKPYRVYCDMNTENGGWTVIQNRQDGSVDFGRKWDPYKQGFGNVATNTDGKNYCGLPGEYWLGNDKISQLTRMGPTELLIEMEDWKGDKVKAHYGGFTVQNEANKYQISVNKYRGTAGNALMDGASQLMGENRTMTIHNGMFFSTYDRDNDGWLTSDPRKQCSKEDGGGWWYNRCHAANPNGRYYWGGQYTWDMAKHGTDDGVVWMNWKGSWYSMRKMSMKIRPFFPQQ
T1 sequence (P02679 27-437 isoform P02679-2 limits assumed): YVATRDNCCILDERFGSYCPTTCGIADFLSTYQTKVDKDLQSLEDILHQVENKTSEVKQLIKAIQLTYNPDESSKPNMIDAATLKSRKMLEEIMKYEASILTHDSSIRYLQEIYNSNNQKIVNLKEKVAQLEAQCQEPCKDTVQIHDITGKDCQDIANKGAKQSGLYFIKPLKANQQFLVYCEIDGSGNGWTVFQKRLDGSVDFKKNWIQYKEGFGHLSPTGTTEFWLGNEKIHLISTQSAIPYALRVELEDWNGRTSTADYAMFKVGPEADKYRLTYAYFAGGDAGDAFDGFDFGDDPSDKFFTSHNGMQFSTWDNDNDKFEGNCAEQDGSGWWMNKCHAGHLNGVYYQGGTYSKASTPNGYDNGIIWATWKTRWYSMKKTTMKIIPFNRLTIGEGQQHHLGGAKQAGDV
Method: (7) Purified clot lysis activity for rt-PA. […] Samples were diluted to assay range (200-1000 ng/mL) in two concentrations with diluent. Dilutions were performed the day before the assay and diluted samples were stored at 2-8° C. until analysis the next day. rt-PA reference material was diluted similarly as an internal reference.
2. Purified Clot Lysis Test (Microcentrifugal Analyzer (Test 1) and Plate Reader (Test 2)):
The potency of the alteplase t-PA protein was assessed by the purified clot lysis assay described below. Samples were diluted to assay range (200-1000 ng/mL) in three or two concentrations with diluent. Dilutions were performed the day before the assay and diluted samples were stored at 2-8° C. until analysis the next day. Rt-PA reference material was diluted similarly as an internal reference.
The assay works as follows: Reagents are substances added to a solution of another substance to participate in a chemical reaction. In this case, contents of boat 1 will react with contents of boat 2 to form a standardized clot. […] As the clot breaks apart, there is a change in the absorbance (light) characteristics. The absorbance is plotted versus time. […]
The endpoint (lysis time) may be determined by a computer program or manually. For automatic calculation by computer, the endpoint is the time required to lyse the clot, which is determined automatically. For manual endpoint determination, the endpoint is defined as the first time point below 0.03 absorbance units where the change is less than 0.003 abs unit. Specifically, for manual determination, the endpoint was determined from the absorbance time data. The first absorbance point less than 0.0300 was located. The endpoint was determined as the time of the first absorbance value less than 0.0300 if the change in absorbance between the current absorbance and the subsequent absorbance was less than 0.0030. If the delta absorbance was greater than 0.0030, one moved to the next absorbance reading and determined the delta absorbance. […]
The mean lysis time for each standard curve point was calculated. […]

| Substance | Catheters with function restored [1] [%] | Visual inspection ([2]; 0.1 mg/mL in NS, immediately after dilution and throughout the infusion period) | Visual inspection ([2]; diluted to 0.01, 0.025, and 0.05 mg/mL with NS, initially and after 24 hours of infusion (no filter) at room temperature) | Lytic activity in clot lysis effectiveness test ([3]; diluted down to 0.01 mg/mL in normal saline) | Lytic activity after storage ([3]; diluted to 0.01, 0.02, and 0.05% mg/mL in 0.9% NaCl IV bags, after 24 hours of storage at ambient conditions) | Specific activities by the clot-lysis activity assay ([3]; fractions collected over 24 hours, all concentrations in NS, in the majority of cases) |
| --- | --- | --- | --- | --- | --- | --- |
| urokinase | 59 | – | – | – | – | – |
| alteplase t-PA: tissue plasminogen activator in a native form such as ACTIVASE® alteplase t-PA; in Example 7 diluted in 0.9% NaCl | 89 | slightly cloudy solution | colorless, clear to slightly opalescent solutions | lytically active | lytically active | greater than 90% |
